Measured values as given in the DeepSol protein solubility set.

Assay: soluble on expression in E. coli; label from the status in PepcDB or PDB records

| Sequence | soluble on expression in E. coli |
| --- | --- |
| MGSDKIHHHHHHMIDFIYSFQNMEQINSSSWHLPTQYFLNRNNKMEATNTHDIQGLSARKTVEAYLAAFAEGKLDDIVSLLDDNVVWHIDGEPGVSTVGLLQGPGRVRRWLQNFPQNFRPLDFSISDIIAHNDSVLVLGRFRHTVLSTGNAVGSDMIIHFKVSGSKITRYQMFEDSALLSRAFDASDEWQLQQVRINGTLYRYRDIGEGPTLIFAHGLFANHEIFSAQFQILSKSYRCIVLDMPGHGLSEYDPAGWKLDDLSRDLALMIQELSLGKVTFIGQSQGGMVAIRLAAHYPQLVSGLVLIGTSARAEFPERLQNWHRQRDILLTGSEHAREDLFKKIQSHINNEAWLQNNQGEAARERRIMLSHNRTGLALALDAAVFERGDITELLADISAPTLIICGEQDTATPVELSQEIATLIADASILILAKTGHHPPTEAAQAVTAAIAEFLKLECSNHH | not soluble |
| MGSDKIHHHHHHMIEYRIEEAVAKYREFYEFKPVRESAGIEDVKSAIEHTNLKPFATPDDIKKLCLEARENRFHGVCVNPCYVKLAREELEGTDVKVVTVVGFPLGANETRTKAHEAIFAVESGADEIDMVINVGMLKAKEWEYVYEDIRSVVESVKGKVVKVIIETCYLDTEEKIAACVISKLAGAHFVKTSTGFGTGGATAEDVHLMKWIVGDEMGVKASGGIRTFEDAVKMIMYGADRIGTSSGVKIVQGGEERYGG | soluble |
| MGSDKIHHHHHHMIGICCLFIVTSCQNREPQGASIQGKDFAQSTEKSVIMVMIDSMTADLLDAAKEEGIIPGLSFLMENGTYFDELIAPFPSMSVVIESTLITGSLPDEHKVPGLVWYHAEEDRLVDYGSTPETYMKLGLNRVLFDDLSNLNNRHLSKDVPTIHEILQDSQMSTGSVNALVYRGNTSHKVNLPEPFDTWMQGQPFETKGPDLLSFGTIIEPKVIQAKELDDDHFLDLYGLNDSYGTAVVRTLIEKNEQPQFLFLFMPDFDQATHDHGQLNLEDFEKVDHAFQDILNSYDSWEQALEENIFIVIGDHGQSQIASTASDAIIPLPTLYEEYEIASLMDAPSDGEIVIANNHRMVYVYSFQPAHSFDTLANEALEDLRIQFAAYLEDDELVIKAPEHKEPLKVKKGGSWIDPYGQTWTIEGNEQIGDVFFDHDCKRIMYGENPDLFNQLFHALDSHTSTLVLTAKPGYIFESEGAPAHIGGGEHGGIHEEDTKAAMIIAGTDKAPAHLRMVDLKDFIIRLMTEEN | not soluble |
| MGSDKIHHHHHHMIHTLYRYCIAFTVVFLSACSVTPRQDASESQAGASAAATLASWNDTRTKRSIVDFVTLVTTPESRDFIPSADRIAVFDNDGTLWPEQPVRVQLVFALQRVKTVAGRHPEWKRQEPFRSILKGNLRSVAASGDAGSLRVLAAAHVGMTSEQFAALAHEWFDSASDPRFNRLYADLAYQPMLELLAYLRANGFKTYLVTGGDVEFVREVAQRMYGIPPEQVIGSTVRYRYSQTNDAISLTRLAQVDTLVDGAAKPLAIDRVIGRRPVIAFGNADGDAPMLEWTSAGDGPRLAALVHHTDAEREYQYDHASQSGKLDKGLDEAAVKGWLIVDMKDDWKTVFKPANTTAPGATGATGATVK | not soluble |
| MGSDKIHHHHHHMIIKNRFTDEIEDAYLDYGSPPPEWQTVQNAAESLRSMPTDQLQSSAKSVFDYIRQNMDAILPRISRTTGKPMRYLRLEVDRSLSETGKIVVMDEPMFHDIPQYSVVYPNYQDPVSSLIVPSIFFLLNRVPVIVVPDRYAFLVPSLIYKAFASSGLPSGSFSISNGGIPEGFPSTRYAVSYSTDAMPEAAPGSGTLHADRGGPSMAVVWKDADVDFAAQNLVDSVIERHSIFLRSIVVHDEIFEYFVNRLKDLLPSIVAGDPEDLSTQLGPCASDIDLIRSLNMIAEARRARSIIYSKGPQGNIITPTIINGEITDMDDMVYTPVYILHHASSMEEVFELVSKVGPEALALYSSDSMLFRMVLSRTSAKYIGLNSYPEISYKPPISIPRRGLYL | not soluble |
| MGSDKIHHHHHHMIKNTIKKLIEHSIYTTFKLLSKLPNKNLIYFESFHGKQYSDNPKALYEYLTEHSDAQLIWGVKKGYEHIFQQYNVPYVTKFSMKWFLAMPRAKAWMINTRTPDWLYKSPRTTYLQTWHGTPLKKIGLDISNVKMLGTNTQNYQDGFKKESQRWDYLVSPNPYSTSIFQHAFHVSRDKILETGYPRNDKLSHKRNDTEYINGIKTRLNIPLDKKVIMYAPTWRDDEAIREGSYQFNVNFDIEALRQALDDDYVILLRMHYLVVTRIDEHDDFVKDVSDYEDISDLYLISDALVTDYSSVMFDFGVLKRPQIFYAYDLDKYGDELRGFYMDYKKELPGPIVENQTALIDALKQIDETANEYIEARTVFYQKFCSLEDGQASQRICQTIFK | not soluble |
| MGSDKIHHHHHHMIKVEIDEGSGFCFGVVTAIHKAEEELAKGETLYCLGDIVHNSREVERLKAMGLITINRDEFRQLRNAKVLLRAHGEPPETYQIAHKNNIEIIDATCPVVLRLQKRIKQEFRKEDFEEKQIVIYGKNGHAEVLGLVGQTGGQAIVIESAEEAKKLDFTKSIRLFSQTTKSLDEFQEIVEYIKLHISPDATFEYYDTICRQVANRMPNLREFAATHDLIFFVSGKKSSNGKMLFEECLKVNANSHLIDNEKEIDPTLLRNVKSIGVCGATSTPKWLMEKIHDHIQLLIKD | not soluble |
| MGSDKIHHHHHHMILNIDVNLAYSIEQPVDLILQIQAPSFADQHVVSETFDLGNPEHVGRIAGEAGMGDRVLLSTATDFRFSYTAQIDVNRPALALEQLKAVAPHLLPGDAVRYLMPSRYCQSDELQSFVAAEFGHLSGGARIVAMRDWINQRYQYVPGSSTAQTTAIDTFVQRQGVCRDFAHVLIALARASAIPARFVSVYAPHVTPQDFHAVAEVFLDGTWHLVDATGMADASDIARIGVGMDAAEVAFLSSFGPMTMDTQTVSVSIAGS | not soluble |
| MGSDKIHHHHHHMINAPKTCTCYNGCVGGPSRPAGHPRRRTDKPRWRWTFDSGRRTPSVRIRQLVRGTVPWESLEAVARELGARYDQDTVRVVFLDADNWLSTPCVVNDRWFVKVISEQNALVHAVFTGARNLGMFSSGTEGFFERFDGPVAMAEHERDATRDLRALGVNAPRPIEAFEVDGFGVLVLDYLPAFTPLDEVPAADVAAHAPAVFEALSTMHANGVAHGDLRAENVLVSDGDLYFIDATNVDTDAIADARAYDLACALAALEPLIDAQTVVRIARESYTVDEAAADVSTTMDALLRAQDFLGFVQLRPDHDFDTAALTGHIGMAATNAQRGL | not soluble |
| MGSDKIHHHHHHMINLNGNSSSSRQVTFITHPSIQSKAFASYLSETLMAPVVLQNINKPLAQRLAKDSVILFDIAVSNKKLNGVWRDIIRLQADNPRLLIINSAQKYELYEMAQWPALYGVFRHDDDESRLIEGVKAVLNGEQTAELSVMHPAMYAADHASTPVENSPLTERECEILNELRCGATNLDIARALFISENTVRTHLYNVFRKLSVKNRTQAVSWANEHLRH | not soluble |
| MGSDKIHHHHHHMINNEKYKELIKYLKSLGKVVLAFSGGVDSTFLLKASKEALGDNVKAVTILSPYIPKWEIREAEELVKELGVEHEIIKAPIIDSIKFNPEDRCYLCKTAVFSMILDAAKRQGYDCVIDGTNFDDIKDYRPGLRALKELSVKSPLLECKLTKAEIRTFSKELGLKTWDKPPYACLLTRIPYGNELKVEDFEKIERAERYMMSIGFRAIRVRCHDDLARIEVAREDRSKLFNEELLDTISENIKKCGFKYVSLDLQGYRVGSFNETIAKISDK | not soluble |
| MGSDKIHHHHHHMINQDIARIFTEIAYLLEAAGEQKSQFEANAYLKASRAISSMQEDLETIYEKGGKDALLSIPGIGKGIADKIVEYINSGSIQKYEDLKKKYPIDFISLMKIEGLGPKKLAVLYQALGITNVEELRNAILNHKVRGIPGFGEKSENQLLKNIEMAERVSERIPIWKAYPEALRIKNYLESTGYALIVEIAGSTRRMKETIGDIDILAASEYPNALMDKFVEMDGVSSIIAKGDKKSTVSLKIGTTCDLRIVSKESFGAAMQYFTGSKDHNIKLRRLAIGKGMKLNEYGLFSGDKNIVSGMPEEKVYETLDLAYIPPELREDRGEIEAAAQKRLPEIVQYGEVKGDMFSKMDVSNIKNITGISYVFVDSGDGPLTDLYMYTFDGGRAVKTGASIKALDCSKLNAVSELKSASGVIMLYNIDSLGLPESAAVQNLIEKLSKSGIIVLINSSDVRPTSDFLYSLRKYDFKVAIGSFSDEPSLEGSMRFGIGITRRAWIEKNRIINTLDANALMSYLKNSQ | not soluble |
| MGSDKIHHHHHHMIRGLYIAVSAMITNQQKQNVVVNNLANMDTNGYKSKQLLTKSFDELKLEGYNNYANGTKQKQIIGDISPGISMDETITNFNQGPIKTTDNKMDVAIQGKGFFLVSDAAGNQFYTRNGNFRTDNQGDLITSEGYYVLGTNTATGAVGHINVGNQKFEVAKDNTISLDGNAMYKFNIVDFNNYNNLKKEGDNLYSGGGAMKVNNALTIQSAIESSNVDMVSEINNMMTISREYEANQKIIQAMDSKLAKIASEIGSVR | not soluble |
| MGSDKIHHHHHHMIRINMFSQADSVAGQGVGAAYLELIRLLRTHLVDDFYVTINKYGRSDLTHYHTINPTYFANSFSPARGRKIGYVHFLPDTLERSIKLPGVAKKVFYQYVIDFYKRMDQIVVVNPIFIDKLTEYGLDRNKIRYIPNFVAKSEFYEQTQAKKNATRQELGIPQDKFVVFGDGQVQARKGVDDFAKLAEANPDYQFIWAGGFSFGKITDGYDHFKQLVENPPKNLTFTGIIDREKLVDYLNMADLFLLPSFDELFPMSVLEAFSCGTPVLLRDLDLYRAIIDGYYLAGKDSAEMNEQLRFAATHPEVLARQQELSRKASQQYSEDHLAEIWRDFYQEQYQLGRELGQISYE | not soluble |
| MGSDKIHHHHHHMIRLLFASLLAASPIHAQGFAGLGTVADGFAVPAPNPTFSFPDDHGPHPDYRIEWWYLTATLTGADGIDYGIQWTLFRSALAPTTSTDWTAPQIFMGHAGLTTPDAHFSAERLARGGIGQAGVTPVPFRAFIDDWEMTSTTAEGDAYDALSLTARGVDFAYDLALQANGPLIFHGQNGFSVKSAEGQASYYYSQPFYTVTGTLTLPTGAVEVSGNAWLDREWSSQPLSDDQSGWDWFSLQLPDGARLMAFALRDTSDQPFTSATYIAPDGTTQAYGDGAITLTPLVTTDVGGRDVPTEWRLQFPDRGIDITTQPLNPQSWMDTSFPYWEGPITFTGTHDGRGYLEMTGYE | not soluble |
| MGSDKIHHHHHHMISTANLTIQFGPKPLFENVSVKFGEGNRYGLIGANGSGKSTFMKIIGGDLEPSAGNVSLEPGVRLGKLRQDQFAFEEVRVLDVVMMGHTEMWAAMSERDAIYANPEATEDDYMRAADLEAKFAEYDGYTAEARAGELLLGLEIAVDQHNLLMREIAPGWKLRVLLAQALFSNPDVLLLDEPTNNLDINTIRWLENVLNGYQSTMIIISHDRHFLNQVCTHMADVDYGEIRVYPGNYDDYMLASTQARERLTANNAKAKERIVELQDFVRRFAANKSKSRQATSRLKQIDRIKADQVEVKPSSRQNPYIRFEQNKVMHRLAVTIEKLSKSYDQPVIRDFSAMVDAGEKVAIIGANGVGKTTLLRMLATDLAPDSGTVKWSENADIGYMAQDVSDQFQQGDINLFDWMAEHRQPGDDDQSIRSALGRLLFSGDDLPKAPKVLSGGEKNRMTFGRLMLGRHNVMLLDEPTNHLDMESIESLQFALEKYEGALIFVSHDREFVSGLATRIIEILPDGELVDYRGGYEDYLASRGIEA | not soluble |
| MGSDKIHHHHHHMITEELEVGYNVPATVGMDEADIQTPCLILDLDALERNVKKMGDYAKAHNMRHRSHGKMHKSVDVQNLQEELGGAIGVCCQKVSEAEVFVRGGIKDVLVSNQVRNPAKIERLANLPKLGSTITVCVDDIDNVAELSAAATKAGTELNCYIEIDCGAGRCGVTTTEAVVEIAKAIDAAENLKFTGIQAYQGAMQHMDSFSDRKAKTQIAIDQVQEAIDALTEIGLKPEFVSGGGTGSYYFESNSGVFNELQCGSYAFMDADYGRILDEDGNRIDAGEWENALFILTSVMSHAKADKAIVDAGLKAQSVDSGLPFVYGRDDVEYVKCSDEHGVVSDPNGVLEINEKLKLVPGHCDPTCNVHDFYIGVRNGKVETVWPVSARGKMY | not soluble |
